According to publication PMC3741172:

Target: Reelin from frontal cortex of non-demented (ND) subjects (human (endogenous in frontal cortex)) (UniProt P78509)
Experiment: native gel or EMSA; blue native-PAGE of human frontal cortex extracts in 25 mM Bis-Tris pH 7.0, 0.5% DDM, 20% glycerol; samples not boiled; anti-Reelin immunoblot

Work on “Reelin from frontal cortex of non-demented (ND) subjects (from UniProt P78509 26-3460) (natural protein)” yielded a stoichiometry N of 2.
